From US20260055176A1 (SURFACE ONCOLOGY, published 2026)
Where a chain is given by its changes, count along the chain named. Values belong to the binder of their own block, whether it stands above or below them.

Legend:
recombinant human IL-27 [1] = target: T1, recombinant human IL-27 (human, UniProt Q14213 21-229; Q8NEV9 29-243); assay: MSD sandwich immunoassay: named antibody coated as capture (0.5 ug/mL), recombinant human IL-27 500 ng/mL, biotinylated SRF381 as detection, SULFO-TAG streptavidin
T1 construct: Bought heterodimeric cytokine (R&D Systems); the whole exemplary entries for EBI3 and p28 are named here, signal peptides included; also called hIL-27; rhIL-27
T1 sequence 1: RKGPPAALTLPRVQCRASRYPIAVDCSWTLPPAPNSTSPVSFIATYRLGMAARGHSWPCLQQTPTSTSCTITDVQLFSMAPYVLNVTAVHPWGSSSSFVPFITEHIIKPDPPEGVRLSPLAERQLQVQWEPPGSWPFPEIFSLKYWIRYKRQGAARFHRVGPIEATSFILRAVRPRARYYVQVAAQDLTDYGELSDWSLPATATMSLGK
T1 sequence 2: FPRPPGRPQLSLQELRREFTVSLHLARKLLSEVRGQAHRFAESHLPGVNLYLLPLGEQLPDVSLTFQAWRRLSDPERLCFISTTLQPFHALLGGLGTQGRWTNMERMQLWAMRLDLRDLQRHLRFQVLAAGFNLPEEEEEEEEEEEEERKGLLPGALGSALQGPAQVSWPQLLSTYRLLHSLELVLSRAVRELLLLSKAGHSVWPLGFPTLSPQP
Description: The ability of anti-IL-27 antibodies to pair with the anti-p28 antibody SRF381 to detect recombinant human IL-27 was assessed by sandwich MSD Immunoassay. Briefly, MSD QUICKPLEX 96-well plates (Meso Scale Discovery L55XA) were coated with 50 μL/well anti-IL-27 antibodies (0.5 μg/mL diluted in PBS) sealed and incubated overnight at 4° C. Plates were washed 3 times with 150 μL/well of wash buffer (PBS+0.01% Tween). Plates were then blocked with 200 μL/well of blocking buffer (PBS+1% BSA+0.01% Tween) for 1 hour at room temperature (RT) with shaking. Blocking buffer was decanted, plates were washed 3 times with 150 μL/well of wash buffer, and 50 μL/well recombinant human IL-27 (R&D Systems 2526-IL/CF) (500 ng/mL diluted in blocking buffer) was added to each well for 2 hours at RT with shaking. Plates were washed 3 times with 150 μL/well of wash buffer, and 50 μL biotinylated SRF381 (diluted 0.5 μg/mL in blocking buffer) was added to each well for 1 hour at RT with shaking. […] Plates were washed 3 times with 150 μL/well of wash buffer and 150 μL of MSD read buffer (Meso Scale Discovery R92TC-1) (diluted to 2X in deionized water) was added to each well and plates were read on a MESO QUICKPLEX SQ120.

recombinant human IL-27 [2] = target: T1, recombinant human IL-27; assay: cell-based or functional assay
recombinant human IL-27 [3] = target: T1, recombinant human IL-27; assay: SPR (Biacore T200), hIL-27 immobilised on CM5, single cycle kinetics
Description: The antibodies were further characterized by surface plasmon resonance (SPR). Kinetic experiments were performed on a Biacore T200 (GE Healthcare, Uppsala, Sweden). All experiments were run at 25° C. with HBS-P+running buffer (pH 7.4) (GE Healthcare, Little Chalfont, UK) using hIL-27 (R&D Systems, Abingdon, UK). Human IL-27 (hIL-27) antigen was captured on a CM5 chip to ˜ 16 RU. Immobilization was carried out at a protein concentration of 1 μg/mL in 10 mM acetate buffer pH 5.0. A three point, three-fold dilution range from 3.3 nM to 30 nM of antibody diluted in HBS-P+buffer without regeneration between each concentration was used. The association phase for the three injections of increasing concentrations of antibody was monitored for 75 seconds each time and a single dissociation phase was measured for 250 seconds following the last injection of antibody. Regeneration of the hIL-27 surface was conducted using a single injection of 2M MgCl₂ for 120s. Multiple repeats (n=4) of the chimeric antibody were performed throughout the assay to check the stability of the surface and analyte over the kinetic cycles.

B1: SRF605 (antibody, V domains shown)
VH: QVQLQESGPGLVKPSQTLSLTCTVSGGSISSGGYYWSWIRQHPGKGLEWIGNIYYSGSTYYNPSLKSRVTISVDTSKNQFSLKLSSVTAADTAVYYCARDGVYQPGAYYWGQGTLVTVSS
VL: DIQLTQSPSSVSASVGDRVTITCRASQGISSWLAWYQQKPGKAPKLLIYGASSLQSGVPSRFSGSGSGTDFTLTISSLQPEDFATYYCQQGVSFPITFGGGTKVEIKR
notes: also called SRF605-A; SRF605-B
binding result (recombinant human IL-27 [1]): binds

B2: SRF381 (antibody, V domains shown)
VH: EVQLVESGGGLVKPGGSLRLSCAASGFTFRSYGMNWVRQAPGKGLEWVSSISSSSSYIYYADSVKGRFTISRDNAKNSLYLQMNSLRAEDTAVYYCARDGGRTSYTATAHNWFDPWGQGTLVTVSS
VL: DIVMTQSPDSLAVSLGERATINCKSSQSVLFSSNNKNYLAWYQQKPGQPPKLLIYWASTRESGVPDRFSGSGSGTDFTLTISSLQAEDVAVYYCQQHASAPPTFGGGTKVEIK
IC50 of inhibition of IL-27-mediated phosphorylation of STAT1 in HUT-78 cells (recombinant human IL-27 [2]): 0.08 µg/mL | IC50 of inhibition of IL-27-mediated phosphorylation of STAT1 in U937 cells (recombinant human IL-27 [2]): 0.081 µg/mL | IC50 of inhibition of IL-27-mediated phosphorylation of STAT1 in pooled human PBMCs (recombinant human IL-27 [2]): 0.141 µg/mL

B3: SRF388 (antibody, V domains shown)
VH: B2 VH with S50G, S55G
VL: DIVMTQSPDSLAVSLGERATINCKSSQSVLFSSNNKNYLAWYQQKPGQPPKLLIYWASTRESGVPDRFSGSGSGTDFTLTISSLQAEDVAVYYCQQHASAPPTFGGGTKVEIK
IC50 of inhibition of IL-27-mediated phosphorylation of STAT1 in HUT-78 cells (recombinant human IL-27 [2]): 0.095 µg/mL | IC50 of inhibition of IL-27-mediated phosphorylation of STAT1 in U937 cells (recombinant human IL-27 [2]): 0.096 µg/mL | IC50 of inhibition of IL-27-mediated phosphorylation of STAT1 in pooled human PBMCs (recombinant human IL-27 [2]): 0.0583 µg/mL

B4: Ab7.7 (antibody, human IgG1, kappa, V domains shown)
VH: EVKLVESGGGLVQPGGSLRLSCAASGFTFTSYSMSWVRQAPGKGLEWVAYISYDGGSAYYPDTVKGRFTISRDNSKKTLYLQMSSLKSEDTAMYYCARHGDYDDDDAMDYWGQGTSVTVSS
VL: DIQMTQSPSSLSASVGDRVTITCRASENIYSYLNWYQQKPGKAPKLLVYNAETLTEGVPSRFSGSGSGTDFTLTISSLQPEDFATYYCQHHYGTPLTFGQGTKLEIKR
notes: humanized, human IgG1 / kappa; Ab7-VL4 variant; also called Ab7-VH1-IgG1 + Ab7-VL4-Kappa
binding result (recombinant human IL-27 [3]): no binding (tested: 30 nM)

B5: Ab7.15 (antibody, human IgG1, kappa, V domains shown)
VH: B4 VH with S84N, K87R, S88A, M93V, S116L
VL: B4 VL
notes: humanized, human IgG1 / kappa; Ab7-VL4 variant; also called Ab7-VH3-IgG1 + Ab7-VL4-Kappa
binding result (recombinant human IL-27 [3]): no binding (tested: 30 nM)

Second part, the binder after the results:

binding result (recombinant human IL-27 [3]): no binding (tested: 30 nM)
B6: Ab7.19 (antibody, human IgG1, kappa, V domains shown)
VH: B4 VH with K3Q, K77N, S84N, K87R, S88A, M93V, S116L
VL: B4 VL
notes: humanized, human IgG1 / kappa; Ab7-VL4 variant; also called Ab7-VH4-IgG1 + Ab7-VL4-Kappa

binding result (recombinant human IL-27 [3]): no binding (tested: 30 nM)
B7: Ab7.11 (antibody, human IgG1, kappa, V domains shown)
VH: B4 VH with K3Q, K77N, S116L
VL: B4 VL
notes: humanized, human IgG1 / kappa; Ab7-VL4 variant; also called Ab7-VH2-IgG1 + Ab7-VL4-Kappa

binding result (recombinant human IL-27 [3]): no binding (tested: 30 nM)
B8: Ab7.23 (antibody, human IgG1, kappa, V domains shown)
VH: B4 VH with K3Q, A49S, K77N, S84N, K87R, S88A, M93V, S116L
VL: B4 VL
notes: humanized, human IgG1 / kappa; Ab7-VL4 variant; also called Ab7-VH5-IgG1 + Ab7-VL4-Kappa
